# Assay results: the DeepSol protein solubility set
# Assay: soluble on expression in E. coli; label from the status in PepcDB or PDB records
row,Sequence,soluble on expression in E. coli
1,MFSSAVRALCRTVPTVATRQLSTSRALLSLRPLGPKNTVPAFKGTAVVDGDFKVISDQDYKGKWLVMFFYPLDFTFVCPTEIIAYGDRANEFRSLGAEVVACSCDSHFSHLAWVNTPRKDGGLGDMDIPLLADFNKKIADSFGVLDKESGLSYRGLFLIDPSGTVRHTTCNDLPVGRSVDETLRVLKAFQFSDKHGEVCPADWHEDSPTIKPGVATSKEYFNKVNK,not soluble
2,MLRTYTVLLLIAHAHVQSHFYYPCSARIFWKIHALINNTDGFVTREVKLGYFIGYKEHRSSAERKANAHGFHGFFFSEITHTFSEMIESLEHANTGAFDDIRTDSETHFFDLDDAERMIERDSIERTNNLLENSRKFKNVRDETHRGKTRRGETHRGETHRGETHRDETHRGETHRDETHRGETHRGETHRGETHRGETHLDETHRGETHRGDTHRGETHRGETHRDDTFRGETLRGETHLDETHRGETHRDETHRGETHRDETHRDETHRDETHRGETHRGETHRGETHRDDTFRGETFRGETHRDETHRGETHRDETHRGETHRGETHRGETHRGETHRGETHRGETHRGETHRGETHRDETFRGETHRGETHRGETHRDDTHRGETHRGETHRGETHRGETHRGETHRGETHRGETHRGETHRGETHRGETHRGETHCDDTHRGETRRAETHRGETHRGETHRDETHRDDTHRGETHRGETHRGETHRGETHRGETHRDETHRGETHRGDTHRGETHRGETHRGETHRGETHRGETHRGETHRGETHRGETHRGETHRDDTHRGETRRAETHRGETHRGETHRDETHRGETHRGETHRGETHRGETHRGETHRDETHRDDTFRGETLRGETHRDETHRGETHRDDTFRGETLRGETHRDETHRGETHRDETHRGETHRGETHRGETHRGETHRGETHRGETHRGETLRGETRCDDTQRGETRRAETHRGETLRGETHRDESHRGETHRGETHRGETHRGETHRGETHRDETHRDDTFRGETLRGETHRDETHRGETHRDDTFRGETLRGETHLDETHRGETHRDETHRGETHRGETHRGETHRDETHRGETHRGETHRGETHRGETHRAETFRGETHRAETHRGETNRGETHRGETHRGETHRGETNRGETHRGETHRGETHRGDTHRAETHRDETHRGETNRDETHRGETHRGETHRGDTNRGETHRGETFRGETHRGETHRGETHRGETHRGETHRGETHRGETHRGETHRDDTFRGETHRGETHCGETHRGETHRGETLRGETLRGETHRDETHRGETLRDETHRGETLRGETHRGETLRGETHRGETHRDDTFRGETLRGETHLDETHRGETHRDETHRGETHRGETHRGETHRGETHRGETHRGETHRGETHRDETHRDDTFRGETLRGETLRDETHRGETHRDDTFRGETHRDETHRGETLRGETHRDETHRDETHRDDTHRGETLRGETHLDETHRGETHRDETHRGETHLDETHRGETHRDETHRGETHRDETHRGETHRGETHVWKARENSGMF,not soluble
3,MALVKEVLVVLNRLSPFELQESWDNSGLNVGSENSEFSEIVACLEITLKIALNAPQNALIITHHPLIFKPLKTLNDEIYPGNILKILIQKNVSVISMHTNFDKTHLNKHFAHALLEFDGLVEKGLMLVKENANIEFDALVKKIKSSLGVGSLACVKSSQTIKDLAFVCGSGASMFSSLKAQSCLITGDVKYHDAMIAQSLGISLIDATHYYSERGFALIVAEILHSFNYLVTIENFKNPLQIILEHHHHHH,soluble
4,MIGLMKGLAYTLKELTREKVTYDYPHEPLPLPDRFRGIQKFYPEKCIVCNQCVNICPTECIQLTGKKHPDPTKKGKVIETYNINFEICILCDLCTEVCPTEAIVMTNNFELAEYSRDALYKDLAWLDENDTNIRRENKP,not soluble
5,MVEARSRHEFVALQLRQRIMQRQYAVGESLPSESMLCAEFEVSRGPVRQALATLKNEGLIQLSQGKPAVVRSHDITQTLDTFTPFSQWARRTGRVAGSRTLEISRRRVSEPAASALGSAPDDFVVEVLRVRLLDGEPTMIERSTFTDRVGSLLFDFDIDTGSITDYLTSRGVRFESMEHVLDAVAATGVDAENLRIDPGSPLLRERRTSRDQNGDTFEYADDRYRPDLVAFSIVNARTIDPRLPSDDGNGA,not soluble
6,MTDHSIRSRALGAYLGLACGDALGATVEFLTKGEIAHQYGVHKHIKGGGWLKLPAGQVTDDTEMSIHLGRAILAAPEWDARRAAEEFAVWLKGVPVDVGDTTRRGIRRFIMHGTLSEPESEYHAGNGAAMRNLPVALATLGDDAAFERWTVEQAHITHCNAMSDAATLTLGHMVRRLVLGGDVRDVRDESNKLIAKHRQFKFQPYRGLATAYIVDTMQTVMHYYFQTDSVESCVVETVNQGGDADTTGAIAGMLAGATYGVETIPPRWLRKLDRDVYNEICAQVDGLLARAPALKQG,soluble
7,MTDVYIAAGLRTPIGLVGKQFAKEQPEILGAKLINALQNKYPVPIDQVICGNTVGTGGNIGRLMTLYSHLGESVSALTVDMQCASAGAALSVGYAKIKAGMASNLLVGGIESSSLQPESVYASADWRQGAYKVAQFSPDSISPFAMIEGAERVAREHGFTKEYLNHWTLRSHQKASYCQEQALLADLILDLSGASDQGIRPRLSSKVLSKVPPILGEGHVISAANACLTHDAAAFLQLSSQPSAFKLIDVVEVAGDPQRSPLMVIKASQVLLEKHGLGMADMTAIEWNEAFAVIDGLFETHYPDLLDRYNIFGGALAYGHPYGASAAIIILHLMRALEIKNGRYGIAAIAAAGGQGFAVLLKYHKEFSHADKARILGKAMPK,not soluble
8,MSLELVSFVKSHIDQAVYFSTITSNPIEFNLPESLSLDTTDIENDIKTSCDEIFYSTGSYIPPMLNTLEQHLNLRIEYFNNLIEFTKINFNYKISPTVKLYLIEKISILKCCLALFKYISDKAILSNIWRDLVLNSFNDSSLEEFVLGKLDEFPRLFTIFLNDLSAKIVGFNDVEEKVKIVDLLITCVYDAVLENCEKSIRYDALQLDPLELDNKPMWFTNLTNIKAMNNIFFSFIFPDNDLSVENKQRLLTVVKLLYYVINQNMIWHKSMKQIETEEYKEVEALYNDNHANWIHVLCNIGVHEEALQICEFYHDLGGLVEILEKLDFEISRELYDQYFKMFGYEFATILFEYYINAKDLKALFFKFPNHHDLLNKFLLSSPPKYYKYAWIQEIIDNDYRKASDILTTLSVGEAGDGCEISERQLHLNIAKLSGLVDENFDANQMIEIQRDIDTIDHQTRIKKLLEEDPTGISMNQAFANNEFGEKFQETKYCIQNDKSINIKYIIDMLSMMDSVENLYEALKLTCIYRHSLGYEVSKYFQQSIWRRCIIEESKDGVIQLEGENSKIYQLLVKYFEGKLYEYDCKLPFVSFLMDRIGISMNFLSIIYGNDNNVLVSISDSIEREYHDLIRIGDTLESQLSTIIGSANESTGNECTINYETKSIEYEGHHHHHH,soluble
9,MGSDKIHHHHHHMIYIGLPQWSHPKWVRLGITSLEEYARHFNCVEGNTTLYALPKPEIVARWYEQTHDDFRFCFKFPATISHQAALRHCDELSSEFFARLAPLASRIGQYWLQLPATFGPRDLPALWHFLDGLPKDFTYGVEVRHPEFFAKEEAEQQLNRGLHERNVNRVILDSRPVHSAAATSPAMIDAQQKKPKVPVHAVMTARQPMVRFIGGDDMAHNRELFRVWLQTLAKWHQSGTPWLFLHTPDIAFAPALVDTLWGDLRAALPAAGNAPSIPQQSSLF,not soluble
10,MAHHHHHHMKKACKLASECLKLCLENSKEGITTDIIDNMAYDFYIKNNAYPAGLNFHSFPKSICASPNEVVCHGIPNLRKLQRGDIITYDCTVFLDGVFGDCAGTVGIGEISERHKKLMDVSKECLYKAISICRDGQLFSEIGRIITEHANKNGFNVIKDFCGHFIGTHMHMYPLIEHHYPNSHNNHRMKKGQIFTIEPILSEGSINIYTWKDKWTVCTNDNSFCSQWEHTILVLDNYAEILT,not soluble
11,MINEHYIPQAVILANGEYPAHELPLRLLAEAQFVVCCDGAANEYISRGHTPDVIIGDGDSLLPEYKKRFSSIILQISDQETNDQTKAVHYLQSKGIRKIAIVGATGKREDHTLGNISLLVEYMRSGMEVRTVTDYGTFIPVSDTQSFASYPGQQVSIINFGAKGLKAEGLFYPLSDFTNWWQGTLNEAIADEFTIHCTGEYLVFLAY,soluble
12,MSLEDQALFGYARYGKVDDVVYPSVIASGNGINYGDSDIEILGDRIPRQILYPAKIKQEILETDKLVIIPNGAELVRKPKDLVRIIMDIHSRYGFSKLIMISGISDPYSIPALVYLGISFFDSSILEMEGKMGYRFTPFGIEKADHDVSSENAIFISDMMHIIQRSISDGTLRELIEKAVISSKAAEMVRIADYSYYQDFESVFPVRTPYIKANTIEDLYRPDLIRYRNYISESYVKPDADIALILPCSAKKPYSRSKSHQKVIGALGNLRRFIHEVIVTSPIGIVPRDLEETYPARFYDIPVIGLWYEDEKIMMKRMMSSYMGRNRYRKVIAFIPEDLDFITEAIPYPHEVIEFKSSNLQRLREVIQREIAGGKAVNQKVAKYNSILRYQFGEWILPLVSGYTIRRNYNQDMIVKDGKILFVYNENLGKFTINKASADMFIKNGKFLVEIDDFKPTSNVYAMGVVDATEDIRQEDEVVLVHSGEVRGVGIAKMPARAMIELKKGIAVKVREGHHHHHH,soluble
13,MTGSACFFSTDFLFGRYGPTVCIIPSENIPDKANTMIRPDFQEYLPSYYFSSVNPHTVYPKLQCRLKAETCIIGGGLSGLCTALPLAEHGHEAVVLEAARIGFGASGRSGGQVISDYACGMGEIEKQVGLEQAQWFWQQSLQAVELVDERVRKHAIDCDWQRGYATVAVRPQHWEELQQWHEHAQRHYGASHYQLWDKAELKQQLDSDMYQGAQFDPLSGHLHPLNYTLGVASAAAEAGAQIFEQSPMTRIEPYQNGWLVYTPEGSVECKNVVYAVNTYVGLNPIFRPLERKAIAVSTFIIATEPLGARTKGLIRNNMAVCDNRHILDYYRLSADGRLLFGGKDNEFIDNPARMTELVRQDMLKVFPQLADVRIEYSWGGECDITANLVPHFGRLTSNVFYTQGYSGHGMAITGIAGLAVAEAILGDECRLKPFEQLCQPNIILQPFLRKLGSFLGSKYYQWKDSRLEHHHHHH,not soluble
14,MAHHHHHHMFAALSWLLDLDQGHAASSSSTSSCSSYSGSLDADAGVETDPAANHTTFSDAGGQLLAELHISSVAAATLSRSASEAAAPPRGAVYSSARHLEESFADLEARKAEFFAPSPCQEPAEDAGLGLSSLTERGGTPVSPLSCKIVPLGSLCAYANETVSLSPIASPVPAPVSATVATLLAPTHEDERLLLVSEGVMLSARLSSPSRGGPRAAAERAKITNNDGSATGAMGAGVAAPTQRSRILDWDREMHARPQASPPPGLSANRGERAVRSGTGVQERSEQIADAEPGEARLVRGAMKAAFMLSTPPHTPALGAAAFAPAAVPLHPSPPFLGTTVGARDAAVPGYSIERIHDTPAQEDSGVVYLADGLATVTSMDVGDLHRQAEQSSPPLTHPLAAQLTTPSHTKQPHFDFS,not soluble
15,MGSDKIHHHHHHMSQSMVGKHAMWPKENDVIFSISGRAQAAEKAFGMDNVINATIGALMDDSGKLITMKTVYEEYKALDNCEIGAYAALEGQPDYLEAVKKVFFRDYLPEGHIRVLASPGGSGAIKLAVWNYTNEGDEVLTSDWFWSPYVSIAEEANRKVVNYQLFDENRRFNFESFKEKFVNIAEKQGRVFTIINTPAHNPTGYSVADDEWDKILDLSKEVAKDKDKKIIFFVDSAYIDFAGDDDVCRKFFKKFSNLPENVLVLVGFSMSKGFTAYGMRMGAIICISSSEDVAEEFHYSCVHSCRANWSNCNRSAMAVLSNIVNDPKKFKEYEDEKEIYKNMLTRRADVFVKEAERVGLEILPYIAGFFVSIPCDNPKEVCEELTKHNLFAVPLKMGLRFAVCAVSEDKCKKAPSIIKEALESLEVKINN,not soluble
